Measured values from paper doi:10.1101/2024.07.11.603087, “Rational Design of a Flavoenzyme for Aerobic Nicotine Catabolism” (bioRxiv, 2024).

Biological target: the molecule itself
Experiment: SEC; Superdex 200 Increase 10/300 GL; molecular weight from elution, consistent with two molecules

B1: PnaoΔN30 (residues 31 to 497) (enzyme, Pseudomonas putida S16, UniProt F8G0P1 31-496, looked up)
chain: IASQLLTLSAPAEAAVKTNVGPSRAGVGYDVIVIGGGFAGVTAAREASRSGLKTLILEGRSRLGGRTFTSKLQNQKVELGGTWVHWTQPNVWTEIMHYGLEVEETVGLANPETVIWVTEDNVKRAPAAEAFEIFGSACNEYYKEARNIYPRPFEPFFERKKLQHVDGLSAADYLEKLPLTREQKDMMDSWLSGNGHNYPETIAYSEIMRWFALSNFNMPTMFDSIARYKIKTGTHSLLEAIMADGNSEVKLSTPVTKVNQDKDKVTVTTEDGVFTASAVIVAVPINTLHDIEYSPKLSAAKVDMGSQRHAGAGVKGYIRVKQNVGNVMTYAPARNKLTPFTSVFTDHVDESGTLLIAFSADPKLIDINDIKAVEKALQPLLPGVEVTASYGYDWNLDPFSKGTWCTYRPNQTTRYLTELQKREGRLFFAGSDMANGWRGFIDGAIENGREVGHQVATYLKRENDNA
notes: Pnao, flavin-dependent pseudooxynicotine oxidase of Pseudomonas putida S16, N-terminal truncation of 30 residues, residues 31 to 497; Cloned into pET-28a between NcoI and XhoI, which would likely give a C-terminal His6 tag (surmised); also called pseudooxynicotine amine oxidase; source: E. coli BL21(DE3), purified (Ni2+-NTA, size-exclusion chromatography)
stoichiometry N: 2
